Experimental data from patent publication US20140205612A1 (published 2014).

B1: 1456_P20 (PG20) (antibody, human IgG1, kappa, V domains shown)
VH: QVRLVQSGPEVKKPGSSVTVSCQASGGTFSSYAFTWVRQAPGQGLEWLGMVTPIFGEAKYSQRFEGRVTITADESTSTTSIELRGLTSEDTAIYYCARDRRAVPIATDNWLDPWGQGTLVTVSS
VL: DIQLTQSPSSLSASVGDRVSITCRASQTINNYLNWYQQTPGKAPKLLIYGASNLQNGVPSRFSGSGSGTDFTLTISSLQPEDFATYYCQQSFSTPRTFGQGTRLDIKR
B2: 1460_G14 (PGG14) (antibody, human IgG1, kappa, V domains shown)
VH: QVLLVQSGTEVKKPGSSVKVSCQASGGAFSSYAFSWVRQAPGQGLEWMGMITPVFGETKYAPRFQGRLTLTAEESLSTTYMELRSLTSDDTAFYYCTRDRRVVPMATDNWLDPWGQGTLVTVSS
VL: DIQLTQSPSSLSASVGDRVTVTCRASQTIHTYLNWYQQIPGKAPKLLIYGASTLQSGVPSRFSGSGSGTDFTLTINSLQPEDFATYYCQQSYSTPRTFGQGTRLDIKR
B3: 1496_C09 (PG9) (TCN-109) (antibody, V domains shown)
VH: QRLVESGGGVVQPGSSLRLSCAASGFDFSRQGMHWVRQAPGQGLEWVAFIKYDGSEKYHADSVWGRLSISRDNSKDTLYLQMNSLRVEDTATYFCVREAGGPDYRNGYNYYDFYDGYYNYHYMDVWGKGTTVTVSS
VL: QSALTQPASVSGSPGQSITISCNGTSNDVGGYESVSWYQQHPGKAPKVVIYDVSKRPSGVSNRFSGSKSGNTASLTISGLQAEDEGDYYCKSLTSTRRRVFGTGTKLTVLG
B4: 1495_C14 (PGC14) (antibody, human IgG1, lambda, V domains shown)
VH: DGHLVQSGVEVKKTGATVKISCKVSGYSFIDYYLHWVQRAPGKGLEWVGLIDPENGEARYAEKFQGRVTIIADTSIDTGYMEMRSLKSEDTAVYFCAAGAVGADSGSWFDPWGQGTLVTVSS
VL: SYELTQPPSVSVSPGQTASITCSGSKLGDKYVSWYQLRPGQSPILVMYENDRRPSGIPERFSGSNSGDTATLTISGTQALDEADFYCQAWETTTTTFVFFGGGTQLTVLG
B5: 1443_C16 (PG16) (TCN-116) (antibody, V domains shown)
VH: QEQLVESGGGVVQPGGSLRLSCLASGFTFHKYGMHWVRQAPGKGLEWVALISDDGMRKYHSDSMWGRVTISRDNSKNTLYLQFSSLKVEDTAMFFCAREAGGPIWHDDVKYYDFNDGYYNYHYMDVWGKGTTVTVSS
VL: QSALTQPASVSGSPGQTITISCNGTSSDVGGFDSVSWYQQSPGKAPKVMVFDVSHRPSGISNRFSGSKSGNTASLTISGLHIEDEGDYFCSSLTDRSHRIFGGGTKVTVLG

Key:
[1] = molecular target: T1, recombinant monomeric gp120 JR-CSF (HIV-1 JR-CSF, UniProt P20871 32-503); assay: mAb Specificity column, ELISA screen
T1 construct: domain: gp120; also called JR-CSF gp120; JR-CSFgp120
Method: In anti-gp120 ELISA, recombinant gp120 (0.5 μg/ml) was captured on 384 well ELISA plates pre-coated (at 4° C. overnight) with goat anti-gp120 (5 μg/ml) in BSA-containing assay buffer (PBS with 0.05% Tween-20) for 1 hr at room temperature. After excess gp120 was removed and plates were washed thrice with assay buffer, B cell culture supernatants diluted 5-fold was added to incubate for 1 hr at room temperature. Following three washes in assay buffer, secondary HRP-conjugated goat anti-human Ig Fc in BSA-containing assay buffer was added and incubated for about 1 hr at room temperature. 3,3′,5,5′-tetramethylbenzidine (TMB) substrate was used to develop the colorimetric readouts after washing the ELISA plates 3 times.

ADA Env on pseudovirus = ADA Env on pseudovirus (HIV-1 ADA); assay: cell-based or functional assay
[2] = molecular target: 92RW020 Env on pseudovirus (HIV-1 92RW020); assay: cell-based or functional assay
[3] = molecular target: HIV-1 JR-CSF Env on pseudovirus (HIV-1 JR-CSF, UniProt P20871 32-848); assay: cell-based or functional assay
[4] = molecular target: JR-FL(E168K) Env on pseudovirus (HIV-1 JR-FL); assay: cell-based or functional assay

Binder | binding result [1] | IC50 (ug/ml), pseudovirus neutralization, TZM-bl assay (ADA Env on pseudovirus) | IC50 (ug/ml), pseudovirus neutralization, TZM-bl assay [2] | IC50 (ug/ml), pseudovirus neutralization, TZM-bl assay [3] | IC50 (ug/ml), pseudovirus neutralization, TZM-bl assay [4]
B1 | binds |  |  |  | 
B2 | binds |  |  |  | 
B3 |  | 0.2 µg/mL | 0.1 µg/mL |  | 
B4 | binds |  |  |  | 
B5 |  | 0.004 µg/mL | 0.09 µg/mL | 0.001 µg/mL | 0.006 µg/mL
